doi:10.1101/2024.08.06.606809
pKd: −log10 of the molar value.

Legend:
Test in all cases: SPR
[1] = target: Protein G variant GD
[2] = target: Protein G variant GF
[3] = target: Protein G variant GLM
[4] = target: Protein G-Fc (Fc specific Protein-G variant)

Row | pKd [1] | pKd [2] | pKd [3] | pKd [4] | Substance
1 | 8.19 | 8.72 | 8.05 |  | Fab^H, wild-type human (Herceptin) Fab scaffold with a kappa light chain
2 |  |  |  | 8.42 | human Fc (Fc domain of IgG) (domain or fragment)
